Patent US20180263927A1

Molecular target: PSA (prostate specific antigen) (UniProt P07288)
Assay: cell-based or functional assay

UniProt P07288, sequence (P07288 25-261 limits assumed): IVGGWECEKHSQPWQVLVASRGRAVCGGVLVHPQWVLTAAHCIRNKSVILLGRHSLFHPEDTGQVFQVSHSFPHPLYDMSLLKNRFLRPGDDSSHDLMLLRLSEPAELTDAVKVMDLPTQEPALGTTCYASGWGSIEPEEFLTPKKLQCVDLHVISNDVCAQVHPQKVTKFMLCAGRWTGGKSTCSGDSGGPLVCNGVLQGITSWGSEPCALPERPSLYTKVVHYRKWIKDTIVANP

## Analog 221 (211/amide or nonester) Mu-His-Ser-Ser-Lys(Fmoc)-Leu-Gln-Leu (peptide)
  cytotoxicity IC50, 48 hour exposure, Prostate DuPro cells (trace PSA): 13 µM
  cytotoxicity IC50, 48 hour exposure, Prostate LnCAP cells (positive PSA): 0.8 µM
  cytotoxicity IC50, 48 hour exposure, Prostate PC3 cells (negative PSA, control): > 21 µM
